Source: the DeepSol protein solubility set

assay: soluble on expression in E. coli; label from the status in PepcDB or PDB records

Row | Sequence | soluble on expression in E. coli
1 | MSEDADLKIFMDFLVEKTKDAFQPMIAVQVFREYLNEKSHLHDYHYKRFCCDLAPNMNEWNNYSIEARIRLMYALGGKVESDFLERIETHGTVELNKKRKITKYTSNDGILSLQDNRVHFTRFMDFLIQKTKYAVEPMNFNQVLEEFCRLEPDCRHYGVYYVRFHHKLAPNMDALNNYNIYDRIRLMFVLNGKVSGDFFKTIKTHGTVELDRKKKITKYVSNDGKLKLGGNIISDTRLMDFLIQKTRHSVEPMQATNLIFKEFSERPSRILDKMYQLRFYQKLAPNMNEWNRYSIEQRIRLMFVLKGKVADDFLKTIPILSMAKRIMICRIETHGTVELDEKRRIRKYTSNDGKLSLKKPLTDDTSCPTNIRFMDFLIQNTKDGAESIRLIYNEFALLEGNVLSASTYSSRFCKKLAPKMSQWSNYRIEDRIRMMFALKGKVESDFLAQMIQSGAVQLDENYRIVRYTSNNGKVELSEKRSGVKRRSSTKSSKTLGKRRQVIEKELSDLDEPEFVGIMHGYPKQEPVYEEIINQDMRYNNEDPHIPPEIEQFPIQAVHLEEPKFDPISSMNIGRGTLAQRFGTTSSESDGISVHNFLISLELILTSLESDTLIDLMREIKELRNRTNDEILPPDLVIPALQTCFMGITRKFRPEVSAPSKSAGECLRILKYSLLWLQSPLLYDLQKRVQEEIENCGADGKVIPIADIQQGIRNILFAVSI | not soluble
2 | MAAQVTLEDALSNVDLLEELPLPDQQPCIEPPPSSLLYQPNFNTNFEDRNAFVTGIARYIEQATVHSSMNEMLEEGQEYAVMLYTWRSCSRAIPQVKCNEQPNRVEIYEKTVEVLEPEVTKLMNFMYFQRNAIERFCGEVRRLCHAERRKDFVSEAYLITLGKFINMFAVLDELKNMKCSVKNDHSAYKRAAQFLRKMADPQSIQESQNLSMFLANHNKITQSLQQQLEVISGYEELLADIVNLCVDYYENRMYLTPSEKHMLLKVMGFGLYLMDGSVSNIYKLDAKKRINLSKIDKYFKQLQVVPLFGDMQIELARYIKTSAHYEENKSRWTCTSSGSSPQYNICEQMIQIREDHMRFISELARYSNSEVVTGSGRQEAQKTDAEYRKLFDLALQGLQLLSQWSAHVMEVYSWKLVHPTDKYSNKDCPDSAEEYERATRYNYTSEEKFALVEVIAMIKGLQVLMGRMESVFNHAIRHTVYAALQDFSQVTLREPLRQAIKKKKNVIQSVLQAIRKTVCDWETGHEPFNDPALRGEKDPKSGFDIKVPRRAVGPSSTQLYMVRTMLESLIADKSGSKKTLRSSLEGPTILDIEKFHRESFFYTHLINFSETLQQCCDLSQLWFREFFLELTMGRRIQFPIEMSMPWILTDHILETKEASMMEYVLYSLDLYNDSAHYALTRFNKQFLYDEIEAEVNLCFDQFVYKLADQIFAYYKVMAGSLLLDKRLRSECKNQGATIHLPPSNRYETLLKQRHVQLLGRSIDLNRLITQRVSAAMYKSLELAIGRFESEDLTSIVELDGLLEINRMTHKLLSRYLTLDGFDAMFREANHNVSAPYGRITLHVFWELNYDFLPNYCYNGSTNRFVRTVLPFSQEFQRDKQPNAQPQYLHGSKALNLAYSSIYGSYRNFVGPPHFQVICRLLGYQGIAVVMEELLKVVKSLLQGTILQYVKTLMEVMPKICRLPRHEYGSPGILEFFHHQLKDIVEYAELKTVCFQNLREVGNAILFCLLIEQSLSLEEVCDLLHAAPFQNILPRVHVKEGERLDAKMKRLESKYAPLHLVPLIERLGTPQQIAIAREGDLLTKERLCCGLSMFEVILTRIRSFLDDPIWRGPLPSNGVMHVDECVEFHRLWSAMQFVYCIPVGTHEFTVEQCFGDGLHWAGCMIIVLLGQQRRFAVLDFCYHLLKVQKHDGKDEIIKNVPLKKMVERIRKFQILNDEIITILDKYLKSGDGEGTPVEHVRCFQPPIHQSLASS | not soluble
3 | MGSDKIHHHHHHMIERLELRNLTVFTGLTLELSPKINVIIGENGTGKTHLLKAAYGLCAGAPLFKNKPDTGDDELEAALTAKLLRLFMPLDDKLGKMHRQGATDQAYLSAKFAGGQKIAATFFNNSKALAVQDRANYEKYQAEAVFIPTKEVLSFMKGFNSLYEKYGLSFDQTYQDICLLLDLPEVRPETLHEKSKWAMAEIEGICGGRFVFYGGGKVTFKTENAEYSANSMAEGFRKAGILSRLLETGAIQPGVSGPLFWDEPESNLNPKLMKLLVQILLELSRNGQQIILATHDYVLLKWFDLLMDKGKDDHVRFHSLYRDADTSEIKVASTEDYLKITPNPIDEAFGFLINQEIENDMGGLGK | not soluble
4 | MSLKRIAIILLTLTSILFVQHVPEGLAKASNELSLEEKYEQRLTLYEKMEAITNVPWYYLAAVDTYERGLRRAQKDRPAEEGLIAIYFSPQQWVGPLNPDLEDTNPLSISMFNGVGLDGNGDGVADRNNDEDVLYTFARYLESYGFKEEDFRIALWEYYQREQSVNIIYGHANVYKTFKTLDLDDHTFPLPLHHNYSYRSTWGDRRGWGGRRIHEGTDIFANYNVPVMATAYGIVEIKGWNKYGGWRIGVRDLDNVYHYYAHLSGFEKGVEKGTVVAPGDVIGYVGSSGYGKPGTQGKFPPHLHYGMYRDNGYTEWSFDPYPSLKSWERKAYQERKKKKEGHHHHHH | soluble
5 | MFLLQAPLQRRILEIGKKHGITELHPDVVSYVSHATQQRLQNLVEKISETAQQKNFSYKDDDRYEQASDVRAQLK | soluble
6 | MGSDKIHHHHHHMARKPIDRPVHIPPLQALRALEAAARHRSFSRAAEELALTHSAISHHMRALEDKLGTKLFQRTGSQMAPTSAGARLAEQIRAALDDIESAVREASSSTTTPVVRLQVSVMADLANAWLIRRLPSLHAQVPSLDLHLRLHAEITPPDPYSVDVGIWHQRIDLPGFECHNLIEDHVIAVASPALLARYPGFTPADVPRMPMLRFALRPWRDWLEAAGLPDAEPERGPIFQDAGLMLQSAVAGLGVATARAQLAHDYLESGQLVQVGSTRIPSSLHYWVTWREGNPREKAIQQFHAWLQEQVRRETPTAEPTTTDDAMK | not soluble
7 | MTMEKGMSSGEGLPSRSSQVSAGKITAKELETKQSYKEKRGGFVLVHAGAGYHSESKAKEYKHVCKRACQKAIEKLQAGALATDAVTAALVELEDSPFTNAGMGSNLNLLGEIECDASIMDGKSLNFGAVGALSGIKNPVSVANRLLCEGQKGKLSAGRIPPCFLVGEGAYRWAVDHGIPSCPPNIMTTRFSLAAFKRNKRKLELAERVDTDFMQLKKRRQSSEKENDSGTLDAVGAVVVDHEGNVAAAVSSGGLALKHPGRVGQAALYGCGCWAENTGAHNPYSTAVSTSGCGEHLVRTILARECSHALQAEDAHQALLETMQNKFISSPFLASEDGVLGGVIVLRSCRCSAEPDSSQNKQTLLVEFLWSHTTESMCVGYMSAQDGKAKTHISRLPPGAVAGQSVAIEGGVCRLESPVN | soluble
8 | MYRAIGMIELTSVARGIYATDQMLKIAYVDVVSATPVCPGKYIAIVQGDVAAVESSISTGIAISGEYLVDSFVLPNVHEGIFPAITATTMPDGTGALGIMESFSMASMITAADAALKAADVQALELRLGSGLGGKAYFTFTGDVAAVEAGIEAGKAIAMEKGLLVDIEVIPSPSDRLWTSLY | soluble
9 | MTQPFNFEQALKDLQSGKSLTGKDSILGPLIKQLTEAALQAELEQHLAHDPQPNRKNGKTPKTIKHPSGNFELDAPRDRNGTFEPQLIKKNQTTLTDEIERKVLSMFSIGMSYRDINQHVEDMYGLNVSNATVSAITDKLIPELKAWQQRPLDSHYPIVWLDAIHYKVKEDGRYVSKAVYTLLALNMKGKKEILGLHLSENEGANYWLSVLADLNNRGVKDILIACVDGLTGFPEAIASIFPHTETQLCVIHQIRNSMKYVASKNQKAFMADLKPVYRAVSKEAAEMALDELEAKWGDAYPLVINSWRRKWHNLSHYFKYPEHIRKVIYTTNAVEAVHRQFRKLTKTKGAFPNENSLLKLLYAGILNASDKWTMPIHNWSLCLSQLAIYFEGRLDSVLEI | not soluble
10 | MVIHCKMFNNQRKTLAKEYHELYMNNNTETRKNKHLNERERYAIELYLKEKYTVTEIAKRLGRHRRTIEREITRGTIYLQNSDLTYRKEYCADVAQRRYVENGKNKGPRLKIGNDHELVRYIESKIINEKYSPDAVIGQIKAKGLKFKTSICTKTLYNYIDRGDVFLRLTNKYLPVKKDGKKRIYQRVKKIALKNLKGSSIEERPKEVNDRKEYGHWEMDCVVGRKNSAAVLLVLSERKTREEIILKLPDKTQESVIKAIDELERKYRRKFREKFKTITVDNGTEFLDYRGIEKSKTEPGKDRTKVYYAHPYSSWERGTNENINKLIRRFIPKGTDISKVSKAKIKSIERWINEYPRRMFGYRSAIEMAV | not soluble
11 | MQGQIIKALAGFYYVESDGQVYQTRARGNFRKKGHTPYVGDWVDFSAEENSEGYILKIHERKNSLVRPPIVNIDQAVVIMSVKEPDFNSNLLDRFLVLLEHKGIHPIVYISKMDLLEDRGELDFYQQTYGDIGYDFVTSKEELLSLLTGKVTVFMGQTGVGKSTLLNKIAPDLNLETGEISDSLGRGRHTTRAVSFYNLNGGKIADTPGFSSLDYEVSRAEDLNQAFPEIATVSRDCKFRTCTHTHEPSCAVKPAVEEGVIATFRFDNYLQFLSEIENRRETYKKVSKKIPK | not soluble
12 | MSKLLLKTPCTTWTFDSLMACVFGIKVSDVKVYFDILKNGPSKINDIAERINRDRSTVQRAVQNLMNAGLVKRKQVNIKDGGYYYVYEAIPFEETKKIIKKTMEEWCNNMKKWVEELEFEDVVKEYLENIEE | not soluble
13 | MSSSTSSVESVEDESCSNECSASFTFDTNNNSRGNNQVNELAEETHMKLSITPTRESFSLSQLERIITIGKGTFGRVELARDKITGAHYALKVLNIRRVVDMRQTQHVHNEKRVLLQLKHPFIVKMYASEKDSNHLYMIMEFVPGGEMFSYLRASRSFSNSMARFYASEIVCALEYIHSLGIVYRDLKPENLMLSKEGHIKMADFGFAKELRDRTYTICGTPDYLAPESLARTGHNKGVDWWALGILIYEMMVGKPPFRGKTTSEIYDAIIEHKLKFPRSFNLAAKDLVKKLLEVDRTQRIGCMKNGTQDVKDHKWFEKVNWDDTLHLRVEPPIVPTLYHPGDTGNFDDYEEDTTGGPLCSQRDRDLFAEW | not soluble
14 | MAHHHHHHMGGCCKGARCPFSHELVQLPPKGVDASGGYFISGNVANYRAAASTSTASPSSRSFVGRWDDPTASSSTDGLSTLASPSSCCVTTGTSLSAEAKEWVGADSAATSSSANSATASITSVQSLRGAASPTFCVSSSSLRYRSAALRRTAQQVSPLPMPHSQRDSQPQPQQAQTQLQSQQSQKPQPSPPQPQLHQQHKRQYQPPPQPRSVANALSALLPNHSESSAAAETRHTSAAPAHPAATARTVSFTQSSNGSGSTTIAALASFFDMQRVSTGAPSATPSSAASQPSKVVFATRRDDQTPATAPTPATAAPPRYTAACITLAASNQRFDPSPSAPSIPTTATPAPAHGSSRSATTSQHMEAPLPRSREALATGAEHQTATVAKAHVTQSAAPPSAAAAPTSPPQYESRTASSAQTRVMPPAPRSQQQQAAHQAQQLRAQEEAQRQVQIQQQLHAQQQAQQLAQQQAQLQQFQQQIQPQKPPPPQQTVYMLTTSRPPTTSTPPHEGIVAPDQLPLGYTLAYAVSTPTPTASAATPILISEQPSAARPTYTLLSSCPPQSQLQSFQTAKGTVLYATPAQVLTQAAAPSENDAPRLILVNTDGTFTVLQAETLAATAGLGLSPTIMRAH | not soluble
15 | GSMQRASRLKRELHMLATEPPPGITCWQDKDQMDDLRAQILGGANTPYEKGVFKLEVIIPERYPFEPPQIRFLTPIYHPNIDSAGRICLDVLKLPPKGAWRPSLNIATVLTSIQLLMSEPNPDDPLMADISSEFKYNKPAFLKNARQWTEKHARQKQKADEEEMLDNLP | soluble
